Assay results as given in PMC5335332, “Arsenite oxidation regulator AioR regulates bacterial chemotaxis towards arsenite in Agrobacterium tumefaciens GW4” (Scientific Reports, 2017).

Tests used:
[1] = target: T1, Mcp (sensing domain; truncated Mcp); test: intrinsic tryptophan fluorescence quenching at […] nm; type: binding, Agrobacterium tumefaciens; details: 1.0 μM protein, 0-25 μM As(III), 1 h, room temperature
T1 construct: predicted extracellular sensing domain, aa 43-325, EcoRI-HindIII in pET-28a(+), His-tagged, E. coli, Ni-NTA; one of 20 mcp genes in the genome; Trp residues W44, W166, W254, W308

[2] = test system: T2, AioR DNA-binding domain (HTH) (Agrobacterium tumefaciens GW4), ORF:ca4d298f; test: EMSA; details: 20 mM Tris-HCl pH 7.0, 50 mM NaCl, 1 mM DTT, 10 mM MgCl2, 100 ug/mL BSA; 28 C, 30 min; 6% native PAGE in 1x TGE
T2 sequence: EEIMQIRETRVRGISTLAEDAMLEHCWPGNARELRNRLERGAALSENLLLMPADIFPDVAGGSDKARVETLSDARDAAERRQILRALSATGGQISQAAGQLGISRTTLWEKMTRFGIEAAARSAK

[3] = test system: T2, AioR DNA-binding domain (HTH) (Agrobacterium tumefaciens GW4), ORF:ca4d298f; test: DNase I footprinting; details: 20 mM Tris-HCl pH 7.0, 50 mM NaCl, 1 mM DTT, 10 mM MgCl2, 100 ug/mL BSA; 28 C, 30 min; 6% native PAGE in 1x TGE
[4] = test system: T2, AioR DNA-binding domain (HTH) (Agrobacterium tumefaciens GW4), ORF:ca4d298f; test: competition; details: 20 mM Tris-HCl pH 7.0, 50 mM NaCl, 1 mM DTT, 10 mM MgCl2, 100 ug/mL BSA; 28 C, 30 min; 6% native PAGE in 1x TGE

| Compound | Kd [1] | binding [2] | binding [3] | binding [4] |
| --- | --- | --- | --- | --- |
| O[As](O)O [As(III)] | 11 ± 3.02 µM | – | – | – |
| TACGGAAAGCACAATACGTGTGCGAATGAAACCAGTTTGCAGTTGTCGGATTTCCGCTTATCATTGAAATAAATGCCGTTATTTTGTGCAGTATAGATTGATTAATATGTTTTATTTATAATATAAATTTTTGCTACATAGCAGTATTCGGATTTAATCGGAGCCAGCATTTGCTTATTGCTACATATATAAACACCTATAAGCTCTAATATGATTCTTTTATGACAATAATATCGAAAAATTAACTATGCGATCCCAG (double strand) [mutant mcp regulatory region] | – | no binding | – | – |
| TACGGAAAGCACAATACGTGTGCGAATGAAACCAGTTTGCAGTGTTCGGATTTCCGAACATCATTGAAATAAATGCCGTTATTTTGTGCAGTATAGATTGATTAATATGTTTTATTTATAATATAAATTTTTGCTACATAGCAGTATTCGGATTTAATCGGAGCCAGCATTTGCTTATTGCTACATATATAAACACCTATAAGCTCTAATATGATTCTTTTATGACAATAATATCGAAAAATTAACTATGCGATCCCAG (double strand) [mcp regulatory region, 259 bp] | – | binds | binds | binds |
| TTTCACGCACGACACTCTGGGAGAAGATGACGCGTTTCGGAATAGAAGCAGCCGCACGTTCGGCCAAATGAACAACGGCGGCGAGACGCTGTTCGGAAAAGCGAACGGGCAACTGGCCATCAAACGGGAAAATATCTATATTTCAGTATTTTAGGAATTGGCATAGCAAT (double strand) [aioBA regulatory region, 170 bp] | – | binds | – | – |
